Target: pneumolysin (Streptococcus pneumoniae) (UniProt P0C2J9)

Chain of pneumolysin (P0C2J9 whole entry): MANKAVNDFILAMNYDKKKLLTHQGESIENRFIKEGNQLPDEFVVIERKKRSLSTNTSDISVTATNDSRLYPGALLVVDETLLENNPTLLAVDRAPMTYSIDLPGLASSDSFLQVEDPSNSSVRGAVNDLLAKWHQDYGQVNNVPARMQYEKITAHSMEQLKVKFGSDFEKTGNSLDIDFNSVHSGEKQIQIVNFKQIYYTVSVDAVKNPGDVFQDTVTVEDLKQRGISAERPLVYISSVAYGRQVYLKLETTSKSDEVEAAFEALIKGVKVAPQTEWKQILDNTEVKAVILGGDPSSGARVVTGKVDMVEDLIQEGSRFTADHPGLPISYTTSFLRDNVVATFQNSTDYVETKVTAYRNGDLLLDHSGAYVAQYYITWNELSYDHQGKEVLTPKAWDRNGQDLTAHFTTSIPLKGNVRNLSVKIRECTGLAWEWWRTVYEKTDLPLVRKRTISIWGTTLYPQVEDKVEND

pneumolysin (from UniProt P0C2J9 1-471) (natural protein)
k0.5 of the reciprocal lag length before lysis of sheep erythrocytes against pneumolysin concentration (fit with Eq. 3), 30.0 °C: 143 nM
k0.5 of the reciprocal lag length before lysis of sheep erythrocytes against pneumolysin concentration (fit with Eq. 3), 33.0 °C: 176 nM
k0.5 of the reciprocal lag length before lysis of sheep erythrocytes against pneumolysin concentration (fit with Eq. 3), 35.0 °C: 243 nM
k0.5 of the reciprocal lag length before lysis of sheep erythrocytes against pneumolysin concentration (fit with Eq. 3), 37.0 °C: 405 nM
k0.5 of the reciprocal lag length before lysis of sheep erythrocytes against pneumolysin concentration (fit with Eq. 3), 38.5 °C: 266 nM

— publication PMC4823331
